Assay results: the DeepSol protein solubility set

Assay: soluble on expression in E. coli; label from the status in PepcDB or PDB records

Soluble on expression in E. coli, not soluble:
MGSDKIHHHHHHMLDPRSVPFAAQIHPQARPARRLTWDSREAGPDTAFVALPGEKMHGNRFVERALAAGAPFVLTDLDVPRAVRVDDARGALFAWARSERAKNPLVVGITGSAGKTTAKSYAAAALDAHFMPVFNTMPAIACFLVQYGASQKPLVVEMGIDHIGEMAELMDLVRPDVGVVTTIGPAHLEQFGMVETIAHEKGQILTARRALVGSQAAAFFPKAQFPHVDSYGFGDVTFRGEGLELSPQAARFRFGGMGVILPLASRVQAEAAVLGMVLAREAGIALADAAVRMSAVEVPGGRYRLHPGRFTVIDDAYNASPVAVRAALDALHALKPEGEVGRRISVLGRMLELGPTERELHAEVGSYAREQADLTYGVGEFAQELGERAFATVPELLADLLNEVRDGDIVLVKASRGISLTPEQRAVTGVGLDVVVEALLDQRDR, MGSDKIHHHHHHMLEQFHIHADLKQQLSTIHEKNKQEAGENAHLIGTKIYKASDNSIIEDAITALLLGKNILLKGPTGSGKTVLAETLSSLFQKPMHSINCSVDLDVEGILGYNTLQTKDGASEVAFVNGPLMKAMKNGHFLYIDEINMAKPETLPLLHGALDYRKMITNPFTQEVVYGDDEYRVIAAINEGYVGTSELNEALKNRFVIIEVPYIQGDTLKELLLAESKLNDVTTIEKFVAFASDLMPLARDGRVSEEAASIRGIIDACDLGVYIPVMRAIERSIIAKLNDETEQMTVRELAESYFFEG, MGSDKIHHHHHHMLFFINLTLKRGLTTLLENANATINPGQKVGLVGKNGCGKSSLFALLKNEMSAEGGEMSFPPNWALAWVNQETPSLDCRAIDYVIQGDREYSRLQQVLQQANTANDGNAIAVLHNQLDAIDAWTIEARAGELLHGLGFTQAELEQPVKAFSGGWRMRLNLAQALICRSDLLLLDEPTNHLDLDAVIWLERWLKQYPGTLILISHDRDFLDPIVGKILHIEQQKLNEYTGDYSSFEQQRATKLAQQNAMYRQQQLKIDHLQRYIDRFKAKATKAKQAQSRIKALERMEKIAPAYVDNPFHFEFREPLSLPNPLLMMENASVGYGEGEKSAVEILSKIKLNLVPGSRIGLLGKNGAGKSTLIKLLAGEIAPTGGTIQLAKGVQLGYFVQHQLDTLRADESALWHLQKIAPQQTEQQLRDYLGGFAFHGDKVNQPVASFSGGEKARLVLALIVWQRPNLLLLDEPTNHLDFRYASGVNGSLGGLSGLFGVGVARSPFIA, MGSDKIHHHHHHMLKLCGFAASNYYNKVKLALLEKNVPFEEVLAWIGETDTTATPAGKVPYMITESGSLCESEVINEYLEAAYPQTPLLPRDPMQAGKVREIVTFLELYLELTARELYPEAFFGGKVSDNVKERQLKLLSRYVPAFAKLAKFSPYVAGDTFTLADCAAAVHLPLVSSCTKIIYGKDLLADLPVKEYLKTLSERPSVQKVNADRKANTELMLSRNK, MGSDKIHHHHHHMLLDYDVALEDDFQQFIKQIPAPVRALLDSADPVARHQRQAVYTLFGIPGRPATMTPLVEALAMVSTLDTPSFAPTPTINDLALSKAHAYASQYLLQQFIRTVSHTTMLPPANRHELLTAAQSLPLANLNRLRLNFNQRERIADFLKDTKDRPAKLTSLSGYLATSLAGLDPAICGLARAIGESVGIVLTILTDVQVTRQIADFRERLLMGNYPLPLLFGFENDPGYFYDFFHQAHKPTADQFVATQQRVLMIGVAPALTMANELVDQARLDSQQLPTDLKKRVEQALTRLAAATAQPH, MGSDKIHHHHHHMLLSRVAESLYWINRYLERAENISRFVEVSESMALDCPPGSAEPWLPLVDASGDRNKFDESYLNKTPSDVANFLIKDRENPNSILSCICMARENARQIRDVITSEMWEQINSLYWSIQEGEVIWHQPAQEQLFEIRRGCQLFYGVTDATFSHDIAWNFSKLGRLIERADKTSRILDVKYFLLLPNLKELGGALDELQWISLLRSAGAYQMFRISEQGSITPNAIASFLLLDPIFPRSVRFCLEGINESLSKIQNSPVSKKPNDLECLIGLLLSKWSFVRIDHLIKDGLHEAIDSLQIDLNKLHDLIHGIYFRNDKKFDFESLQG, MGSDKIHHHHHHMLMGSKDKVISILKEKGPISQTELSKLSGLSKSRLSEVLSELEKQGIVKRRKVLGKNLEVSLSQDRFLRLGIIRAAEYPFIIPFIKNLENRGYSVTVKIYENGIDLTRDLVEAKLDLGLSPIITQIIFSTIYRNIRIIGGGAKGGGGIIGKTCNRIASTVMSSMEIWAFSEFKNIEIIPSYSSYEMLDFLEKGIVDGIAIWEPFLSILERKGHKVHRFTPLHCCTLAVRETMDWERIKNIYEESFSWFKSSIDRWVSSYSNLLNIDYNILKEASKNYEFDYYLDLKEFKNSLKNTGIFIPI
